Experimental findings from patent US20150175705A1 are described below.

Assay [1] deals with T1, human prolactin receptor (PRLR) expressed on cells (human) (UniProt P16471).
T1 sequence: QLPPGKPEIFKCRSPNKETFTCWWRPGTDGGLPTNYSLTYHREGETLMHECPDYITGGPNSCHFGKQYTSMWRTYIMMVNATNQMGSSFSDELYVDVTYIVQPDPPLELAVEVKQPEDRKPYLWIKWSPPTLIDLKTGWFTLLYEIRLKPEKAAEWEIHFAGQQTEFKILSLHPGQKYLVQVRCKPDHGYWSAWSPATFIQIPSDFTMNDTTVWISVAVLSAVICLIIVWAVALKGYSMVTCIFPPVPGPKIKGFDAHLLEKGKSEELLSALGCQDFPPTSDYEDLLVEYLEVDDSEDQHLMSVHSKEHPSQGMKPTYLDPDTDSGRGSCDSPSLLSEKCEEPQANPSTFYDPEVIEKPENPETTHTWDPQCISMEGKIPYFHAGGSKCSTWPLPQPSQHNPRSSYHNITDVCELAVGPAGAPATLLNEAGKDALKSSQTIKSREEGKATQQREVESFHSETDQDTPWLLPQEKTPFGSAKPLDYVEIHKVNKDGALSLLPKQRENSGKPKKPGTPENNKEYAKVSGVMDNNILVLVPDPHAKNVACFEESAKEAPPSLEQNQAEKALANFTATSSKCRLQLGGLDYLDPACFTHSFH
Put plainly: flow cytometry on CHO-K1 cells expressing human PRLR (clone 1G5). (In flow cytometry, cells or beads pass a laser one at a time.)

The target of assay [2] is T1, human prolactin receptor (PRLR) expressed on cells (human). Put plainly: cell-based or functional assay.

The molecule “mAb 1167, control murine anti-PRLR monoclonal antibody (R&D Systems, catalog # MAB 1167)” yielded an MFI in assay [1] of 33.8 MFI.

B1: XHA.06.983 (antibody, from another filing, V domains shown)
VH: DVQLVESGGGLVQPGGSRKLSCAASGFAFSSFGMQWVRQAPEKGLEWVAYISSGSSTIYYADTVKGRFTISRDNPKNTLFLQMTSLRSEDTAMYYCVRSGRDYWGQGTSVTVSS
VL: SIVMTQTPKFLLVSAGDRVTITCKASQGVSNDVAWFQQKPGQSPKLLIYSASTRYTGVPDRLTGSGYGTDFTFTINTVQAEDLAVYFCQQDYTSPTFGGGTKLEIKR
With B1, the pERK1/2 inhibition IC50 in assay [2] was determined as 0.11.
